Positions count from the first letter of the chain named.

For assay [1], the target named is T1, His-Sirt1 core domain, aa 234 to 510 (human, UniProt Q96EB6 234-510).
T1 construct: Sirt1, human, deacetylase core domain, aa 234 to 510; His-tagged Sirt1 was made by subcloning human Sirt1 cDNA into pET28a; also called His-tagged Sirt1 core domain; source: E. coli Rosetta (DE3), eluted
T1 sequence (looked up): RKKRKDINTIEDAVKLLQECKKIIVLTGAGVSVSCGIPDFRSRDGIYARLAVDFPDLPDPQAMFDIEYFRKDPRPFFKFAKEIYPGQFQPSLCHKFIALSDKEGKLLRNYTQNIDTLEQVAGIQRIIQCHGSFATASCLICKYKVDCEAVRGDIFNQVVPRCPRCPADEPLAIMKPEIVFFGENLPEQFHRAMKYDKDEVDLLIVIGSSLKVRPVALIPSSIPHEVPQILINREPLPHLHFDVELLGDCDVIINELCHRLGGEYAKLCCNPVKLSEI
In words: pull-down; competitive binding: 2 ug GST-LZ of DBC1 from E. coli, 2 ug eluted His-Sirt1 core domain, with or without 2 ug eluted C-terminal truncation of Sirt1 (WT or mutants), 4 h; bound fraction immunoblotted. The following applies: both partners purified.

Assay [2] addresses T2, MBP-Sirt1 core domain, aa 234 to 510 (human, UniProt Q96EB6 234-510).
T2 construct: Sirt1, human, deacetylase core domain, aa 234 to 510; MBP-tagged Sirt1 was made by subcloning human Sirt1 cDNA into pMal-c2X; also called MBP-tagged core domain of Sirt1; source: E. coli, purified
T2 sequence (looked up): T1 sequence (looked up)
In words: pull-down; MBP pull-down: MBP-Sirt1 core domain purified from E. coli incubated with eluted GST-Sirt1 C terminus (WT, 3A or 3D); bound fraction immunoblotted. Particulars: both partners purified. A general note: Immunoblotting shows a protein as a band on a membrane.

B1: C-terminal truncation of Sirt1, WT (eluted competitor), aa 511 to 747 (domain or fragment, human, UniProt Q96EB6 511-747, looked up)
chain: TEKPPRTQKELAYLSELPPTPLHVSEDSSSPERTSPPDSSVIVTLLDQAAKSNDDLDVSESKGCMEEKPQEVQTSRNVESIAEQMENPDLKNVGSSTGEKNERTSVAGTVRKCWPNRVAKEQISRRLDGNQYLFLPPNRYIFHGAEVYSDSEDDVLSSSSCGSNSDSGTCQSPSLEEPMEDESEIEEFYNGLEDEPDVPERAGGAGFGTDGDDQEAINEAISVKQEVTDMNYPSNKS
notes: Sirt1, human, C terminus, aa 511 to 747; the methods name GST- and His-tagged Sirt1 truncations from E. coli; also called the C terminus of Sirt1; WT C terminus; source: eluted
Take B1: the binding result in assay [1] is listed as “binds”.

B2: GST-Sirt1 WT (C terminus), aa 511 to 747 (domain or fragment, human, UniProt Q96EB6 511-747, looked up)
chain: B1 chain
notes: Sirt1, human, C terminus, aa 511 to 747; GST-tagged Sirt1 was made by subcloning human Sirt1 cDNA into pGEX-6p-1; also called GST-Sirt1-C; GST-tagged C terminus of Sirt1; source: E. coli Rosetta (DE3), purified (glutathione-Sepharose 4B, eluted with reduced glutathione)
B2: in assay [2], the binding result is given as “binds”.

B3: GST-Sirt1 3D mutant (C terminus), aa 511 to 747 (domain or fragment, human, UniProt Q96EB6 511-747, looked up)
chain: B1 chain with S105D, S159D, S222D
notes: Sirt1, human, C terminus, aa 511 to 747, Ser615, Ser669 and Ser732 replaced by Asp; source: E. coli Rosetta (DE3), purified (glutathione-Sepharose 4B, eluted with reduced glutathione)
Take B3: in assay [2], the binding result was “binds”.

B4: GST-Sirt1 3A mutant (C terminus), aa 511 to 747 (domain or fragment, human, UniProt Q96EB6 511-747, looked up)
chain: B1 chain with S105A, S159A, S222A
notes: Sirt1, human, C terminus, aa 511 to 747, Ser615, Ser669 and Ser732 replaced by Ala; source: E. coli Rosetta (DE3), purified (glutathione-Sepharose 4B, eluted with reduced glutathione)
B4: the binding result in assay [2] is given as “binds”.

B5: C-terminal truncation of Sirt1, 3D mutant (eluted competitor), aa 511 to 747 (domain or fragment, human, UniProt Q96EB6 511-747, looked up)
chain: B1 chain with S105D, S159D, S222D
notes: Sirt1, human, C terminus, aa 511 to 747, Ser615, Ser669 and Ser732 replaced by Asp; also called 3D C terminus; source: eluted
In the case of B5, the binding result in assay [1] is listed as “binds”.

B6: GST-tagged LZ (leucine-zipper) domain of DBC1, aa 243 to 264 (domain or fragment, UniProt Q8N163 243-264, looked up)
chain: LQRRYRSLLVPSDFLSVHLSWL
notes: DBC1 (Deleted in Breast Cancer 1), leucine zipper, aa 243 to 264; also called GST-LZ; DBC1 LZ domain; source: E. coli, purified
Turning to B6, the binding result in assay [1] is “binds”.

The values above are taken from article PMC8326426, “Resveratrol-induced Sirt1 phosphorylation by LKB1 mediates mitochondrial metabolism” (The Journal of Biological Chemistry, 2021).
